From the supplement of paper PMC9112550, “Optimization of the antimicrobial peptide Bac7 by deep mutational scanning” (BMC Biology, 2022)

Test system: Escherichia coli TOP10
Assay: shrunken log2 fold change of peptide-encoding DNA abundance (4.5 h post-induction vs induction); higher = less antimicrobial activity (less host growth inhibition)
Conditions: time post-induction: 4.5 h; library: site-saturation at positions 5, 18, 19, 20
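Also: peptides expressed intracellularly from a pBAD plasmid library in pooled LB shake-flask culture, induced with 0.3% L-arabinose, DNA abundance read by NGS, three biological replicates, DESeq2 with apeglm shrinkage.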

RRIRCRPPRLPRPRPRPYSKPRP and RRIRDRPPRLPRPRPRPQKTPRP are within 0.2 log units of each other in “shrunken log2 fold change” value: -0.192 for the first, -0.253 for the second.

First: RRIRPRPPRLPRPRPRPKWAPRP
Second: RRIRNRPPRLPRPRPRPAHRPRP
The “shrunken log2 fold change” value of the first is lower: 0.0222 for the first, 0.264 for the second.

Going from RRIRVRPPRLPRPRPRPWQHPRP to RRIRPRPPRLPRPRPRPFAHPRP, the “shrunken log2 fold change” value falls from 0.0882 to -0.124.

Going from RRIRERPPRLPRPRPRPHSQPRP to RRIRFRPPRLPRPRPRPAWWPRP, the “shrunken log2 fold change” value rises from 0.061 to 0.273.

First: RRIRYRPPRLPRPRPRPNVWPRP
Second: RRIRHRPPRLPRPRPRPPCAPRP
The “shrunken log2 fold change” value of the first is lower: -0.00356 for the first, 0.228 for the second.

RRIRDRPPRLPRPRPRPSAMPRP and RRIRFRPPRLPRPRPRPHDAPRP are within 0.2 log units of each other in “shrunken log2 fold change” value: 0.36 for the first, 0.293 for the second.

Going from RRIRYRPPRLPRPRPRPITQPRP to RRIRLRPPRLPRPRPRPPVAPRP, the “shrunken log2 fold change” value rises from -0.532 to 0.387.

RRIRWRPPRLPRPRPRPDSCPRP and RRIRFRPPRLPRPRPRPDTQPRP are within 0.2 log units of each other in “shrunken log2 fold change” value: -0.0201 for the first, 0.0363 for the second.

Going from RRIRWRPPRLPRPRPRPLHSPRP to RRIRGRPPRLPRPRPRPWFDPRP, the “shrunken log2 fold change” value falls from 0.215 to -0.0883.

First: RRIRPRPPRLPRPRPRPLMQPRP
Second: RRIRWRPPRLPRPRPRPACHPRP
The “shrunken log2 fold change” value of the first is lower: 0.124 for the first, 0.442 for the second.

RRIRTRPPRLPRPRPRPNFEPRP and RRIRGRPPRLPRPRPRPWWTPRP are within 0.2 log units of each other in “shrunken log2 fold change” value: -0.101 for the first, -0.124 for the second.

Going from RRIRERPPRLPRPRPRPKMIPRP to RRIRPRPPRLPRPRPRPCMWPRP, the “shrunken log2 fold change” value rises from -0.399 to 0.0459.

Going from RRIRYRPPRLPRPRPRPCFEPRP to RRIRERPPRLPRPRPRPNFLPRP, the “shrunken log2 fold change” value rises from -0.614 to -0.114.

First: RRIRMRPPRLPRPRPRPSLVPRP
Second: RRIRFRPPRLPRPRPRPDIEPRP
The “shrunken log2 fold change” value of the first is lower: -0.252 for the first, 0.0974 for the second.

Compared with RRIRMRPPRLPRPRPRPWHYPRP, RRIRDRPPRLPRPRPRPFPLPRP is higher in “shrunken log2 fold change” value: -0.327 for the first, 0.0517 for the second.

Compared with RRIRWRPPRLPRPRPRPGTIPRP, RRIRYRPPRLPRPRPRPEEPPRP is higher in “shrunken log2 fold change” value: -0.283 for the first, 0.115 for the second.

Going from RRIRERPPRLPRPRPRPGDGPRP to RRIRVRPPRLPRPRPRPKLHPRP, the “shrunken log2 fold change” value falls from 0.389 to -0.237.

Going from RRIRDRPPRLPRPRPRPSMYPRP to RRIRVRPPRLPRPRPRPNPAPRP, the “shrunken log2 fold change” value rises from -0.105 to 0.31.

First: RRIRYRPPRLPRPRPRPMTVPRP
Second: RRIRIRPPRLPRPRPRPGYFPRP
The “shrunken log2 fold change” value of the first is higher: -0.0212 for the first, -0.904 for the second.

RRIRRRPPRLPRPRPRPVGIPRP and RRIRSRPPRLPRPRPRPACCPRP are within 0.2 log units of each other in “shrunken log2 fold change” value: 0.12 for the first, 0.303 for the second.

First: RRIRSRPPRLPRPRPRPQTAPRP
Second: RRIRVRPPRLPRPRPRPPMGPRP
The “shrunken log2 fold change” value of the first is lower: 0.0464 for the first, 0.254 for the second.

Going from RRIRDRPPRLPRPRPRPWCIPRP to RRIRTRPPRLPRPRPRPCPIPRP, the “shrunken log2 fold change” value rises from -0.383 to -0.0712.

RRIRSRPPRLPRPRPRPTRIPRP and RRIRKRPPRLPRPRPRPEKTPRP are within 0.2 log units of each other in “shrunken log2 fold change” value: -0.0163 for the first, -0.000942 for the second.

First: RRIRWRPPRLPRPRPRPCFEPRP
Second: RRIRARPPRLPRPRPRPSLCPRP
The “shrunken log2 fold change” value of the first is lower: -0.0254 for the first, 0.276 for the second.

Going from RRIRERPPRLPRPRPRPGYRPRP to RRIRDRPPRLPRPRPRPPAGPRP, the “shrunken log2 fold change” value rises from -0.408 to 0.418.

RRIRIRPPRLPRPRPRPRVCPRP and RRIRVRPPRLPRPRPRPNGYPRP are within 0.2 log units of each other in “shrunken log2 fold change” value: 0.00058 for the first, -0.199 for the second.

Compared with RRIRYRPPRLPRPRPRPIPLPRP, RRIRSRPPRLPRPRPRPAFSPRP is higher in “shrunken log2 fold change” value: -0.418 for the first, -0.145 for the second.

Compared with RRIRPRPPRLPRPRPRPTTYPRP, RRIRPRPPRLPRPRPRPGMGPRP is higher in “shrunken log2 fold change” value: -0.141 for the first, 0.149 for the second.

Compared with RRIRTRPPRLPRPRPRPLFTPRP, RRIRLRPPRLPRPRPRPLMPPRP is higher in “shrunken log2 fold change” value: -0.352 for the first, -0.0944 for the second.

Compared with RRIRVRPPRLPRPRPRPHRQPRP, RRIRNRPPRLPRPRPRPVGCPRP is higher in “shrunken log2 fold change” value: -0.384 for the first, 0.618 for the second.

RRIRWRPPRLPRPRPRPDWNPRP and RRIRKRPPRLPRPRPRPKHNPRP are within 0.2 log units of each other in “shrunken log2 fold change” value: 0.0393 for the first, 0.0641 for the second.

Compared with RRIRTRPPRLPRPRPRPGFWPRP, RRIRFRPPRLPRPRPRPWKIPRP is lower in “shrunken log2 fold change” value: 0.199 for the first, -0.0171 for the second.

RRIRARPPRLPRPRPRPHITPRP and RRIRLRPPRLPRPRPRPDYLPRP are within 0.2 log units of each other in “shrunken log2 fold change” value: -0.294 for the first, -0.114 for the second.

Going from RRIRDRPPRLPRPRPRPNHPPRP to RRIRTRPPRLPRPRPRPCYLPRP, the “shrunken log2 fold change” value falls from -0.222 to -0.468.

First: RRIRMRPPRLPRPRPRPHGWPRP
Second: RRIRRRPPRLPRPRPRPNAFPRP
The “shrunken log2 fold change” value of the first is higher: 0.839 for the first, -0.0721 for the second.

First: RRIRTRPPRLPRPRPRPEHNPRP
Second: RRIRGRPPRLPRPRPRPNWTPRP
The “shrunken log2 fold change” value of the first is lower: -0.353 for the first, 0.0497 for the second.

Going from RRIRARPPRLPRPRPRPNQKPRP to RRIRVRPPRLPRPRPRPYPTPRP, the “shrunken log2 fold change” value falls from 0.0427 to -0.398.

RRIRWRPPRLPRPRPRPKPGPRP was tested, and the “shrunken log2 fold change” value was 0.34.
